# Biological target: the molecule itself
# Assay: crystal structure
protein,measurement,value
"NudC (residues 1-257, E178Q), Escherichia coli, active-site mutant (enzyme, UniProt P32664 1-257, looked up) MDRIIEKLDHGWWVVSHEQKLWLPKGELPYGEAANFDLVGQRALQIGEWQGEPVWLVQQQRRHDMGSVRQVIDLDVGLFQLAGRGVQLAEFYRSHKYCGYCGHEMYPSKTEWAMLCSHCRERYYPQIAPCIIVAIRRDDSILLAQHTRHRNGVHTVLAGFVEVGETLEQAVAREVMEQSGIKVKNLRYVTSQPWPFPQSLMTAFMAEYDSGDIVIDPKELLEANWYRYDDLPLLPPPGTVARRLIEDTVAMCRAEYE",stoichiometry N,2
